In patent publication US20050042220A1 (GENETICS INSTITUTE, published 2005):

T1: human IL-22 binding protein-Fc fusion (human, UniProt Q969J5-2 22-231, limits assumed)
T1 construct: Fc fusion homodimer, used as CHO conditioned medium; also called IL-22BP-Fc; huIL22BP-huFc; not shown: human IgG1 Fc
T1 sequence: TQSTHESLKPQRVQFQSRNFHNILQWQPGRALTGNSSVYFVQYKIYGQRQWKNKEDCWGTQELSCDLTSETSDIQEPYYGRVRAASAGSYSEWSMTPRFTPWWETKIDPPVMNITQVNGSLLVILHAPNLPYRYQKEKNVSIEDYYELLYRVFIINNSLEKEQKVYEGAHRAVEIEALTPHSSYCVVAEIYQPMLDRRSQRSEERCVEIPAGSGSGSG

T2: human IL-22R extracellular domain-Fc fusion homodimer (human, UniProt Q8N6P7 16-228)
T2 construct: extracellular domain; Used as CHO conditioned medium, not purified; also called IL-22R-Fc; IL-22RECD-Fc; not shown: human IgG1 Fc
T2 sequence: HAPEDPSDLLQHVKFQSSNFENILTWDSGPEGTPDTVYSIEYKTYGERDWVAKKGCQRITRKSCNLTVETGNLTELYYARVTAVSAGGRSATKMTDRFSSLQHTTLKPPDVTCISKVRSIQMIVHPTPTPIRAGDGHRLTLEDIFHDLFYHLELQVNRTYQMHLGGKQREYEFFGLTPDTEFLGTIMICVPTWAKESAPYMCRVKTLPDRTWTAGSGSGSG

T3: IL-22R-Fc/IL-10R2-Fc heterodimer from co-expressing CHO cells (human, UniProt Q8N6P7 16-228; Q08334 20-220)
T3 construct: extracellular domain; also called IL-22R/IL-10R2-Fc heterodimer; IL-22R-Fc/IL-10R2-Fc complex; not shown: human IgG1 Fc
T3 sequence 1: T2 sequence
T3 sequence 2: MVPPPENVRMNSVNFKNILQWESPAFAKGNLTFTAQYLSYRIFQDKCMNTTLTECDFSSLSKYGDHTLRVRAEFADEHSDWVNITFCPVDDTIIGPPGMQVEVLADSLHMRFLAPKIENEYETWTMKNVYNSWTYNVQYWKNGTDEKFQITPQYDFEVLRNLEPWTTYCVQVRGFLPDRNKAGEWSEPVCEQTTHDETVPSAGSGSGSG

B1: N terminal His/Flag tagged human IL-22 (ligand)
chain: GSGHHHHHHGSGDYKDDDDKAPISSHCRLDKSNFQQPYITNRTFMLAKEASLADNNTDVRLIGEKLFHGVSMSERCYLMKQVLNFTLEEVLFPQSDRFQPYMQEVVPFLARLSNRLSTCHIEGDDLHIQRNVQKLKDTVKKLGESGEIKAIGELDLLFMSLRNACI
notes: Made in CHO cells, extensively N-glycosylated; also called human h/f tagged IL-22; hIL-22
B2: human IL-10R2 extracellular domain-Fc fusion homodimer (Fc fusion)
chain: T3 sequence 2
notes: extracellular domain; Used as CHO conditioned medium, not purified; also called IL-10R2-Fc; IL-10R2ECD-Fc; not shown: human IgG1 Fc

Key:
[1] = target: T1, human IL-22 binding protein-Fc fusion; assay: BIAcore, Fc fusion from conditioned medium captured by anti-human IgG, IL-22 injected, 1:1 model
Description: (§1) The surface was activated with EDC/NHS. The capturing antibody was injected at a concentration of 50 ug/ml in sodium acetate buffer (pH 4.5), the Protein-A was injected at a concentration of 50 ug/ml in sodium acetate buffer (pH 4.0), or test protein was directly injected at a concentration of 0.01-1 ug/ml in sodium acetate buffer (pH 5.0). The immobilization was done using the wizard tools with aim of 10.000 resonance units (RUs) for the anti-hu or anti-rat IgG, 3000 (RUs) for the Protein-A and […] (RUs) for the directly immobilized testing protein. Remaining activated groups were blocked with 1.0 M ethanolamine (pH 8.0). As control the first flow cell was used as reference surface to correct for bulk refractive index, matrix effects and non-specific binding, the second, third and four flow cells were coated with the capturing molecule.
(§2) For kinetic analysis, condition media containing IL-22R-Fc, IL-10R2-Fc, IL-22R-Fc/IL-10R2-Fc receptor complex or IL-22BP-Fc protein were captured onto the anti-human IgG antibody or protein A surfaces. The rat antibodies were captured onto the anti-rat IgG antibody surface, by injecting 60 ul of a 400 ng/ml solution. […] The dissociation phase was monitored in HBS/EP buffer for 10 minutes at the same flow rate followed by 5 ul injection of 0.1% TFA and 5 ul injection of glycine pH 1.5 to regenerate a fully active capturing surface. […]

[2] = target: T2, human IL-22R extracellular domain-Fc …; assay: BIAcore, receptor-Fc from conditioned medium captured by anti-human IgG, IL-22 injected, 1:1 model
Description: as §1, §2

[3] = target: T3, IL-22R-Fc/IL-10R2-Fc heterodimer from …; assay: as above
Description: as §1, §2

[4] = target: T2, human IL-22R extracellular domain-Fc …; assay: sandwich ELISA: rabbit anti-hIL-22R coat, 1:1 mixture of IL-22R-Fc and IL-10R2-Fc media titrated, biotinylated goat anti-hIL-10R2 then streptavidin-HRP, A450
Description: Monomeric IL-22RECD-Fc and IL-10R2ECD-Fc fusions were determined to have molecular weights of ˜60 kD and ˜85 kD, respectively. Reduced and non-reduced conditioned media (CM) from CHO cells expressing either or both receptor Fc fusions was separated on SDS-PAGE gels and blotted to a membrane which was then probed with polyclonal antibodies directed against either human IgG Fc, IL-22R or IL-10R2. More specifically, in FIG. 7A, conditioned media from CHO cells expressing either IL-22R-Fc, IL-10R2-Fc or both receptor Fc were separated on 8% polyacyrlamide gels under both reduced (+βME) and non-reduced (−βME) conditions and transferred to membrane blots. Western blots were carried out using any of anti-human IgG1, anti-hIL-22R or anti-hIL-10R2 antibodies. For anti-hIgG detection of a blot, 4 ng total Fc fusion in CM was loaded in each lane. For anti-IL-22R and anti-IL-10R2 antibody detection, 16 ng total Fc fusion in CM from co-expressing CHO was used. […] The bound receptors were detected using a biotinylated goat anti-human IL-10R2 antibody, followed by streptavidin-HRP.
The presence of heterodimers in the CM from CHO cells was verified by sandwich ELISA, using antibodies specific for each chain of the heterodimer. Conditioned media was added to wells coated with an IL-22R polyclonal antibody and bound protein was then detected with a biotinylated IL-10R2 polyclonal antibody. […]

Binder	Kd [1]	Kd [2]	Kd [3]	binding result [4]
B1	3.37 nM	41 nM	1.48 nM	–
B2	–	–	–	no binding (tested: 100 ng/ml total Fc fusion)
